Here are results for five molecules from PMC8446286.

This series addresses T1, GST-PIF4 (Arabidopsis thaliana, UniProt Q8W2F3 1-430).
T1 sequence: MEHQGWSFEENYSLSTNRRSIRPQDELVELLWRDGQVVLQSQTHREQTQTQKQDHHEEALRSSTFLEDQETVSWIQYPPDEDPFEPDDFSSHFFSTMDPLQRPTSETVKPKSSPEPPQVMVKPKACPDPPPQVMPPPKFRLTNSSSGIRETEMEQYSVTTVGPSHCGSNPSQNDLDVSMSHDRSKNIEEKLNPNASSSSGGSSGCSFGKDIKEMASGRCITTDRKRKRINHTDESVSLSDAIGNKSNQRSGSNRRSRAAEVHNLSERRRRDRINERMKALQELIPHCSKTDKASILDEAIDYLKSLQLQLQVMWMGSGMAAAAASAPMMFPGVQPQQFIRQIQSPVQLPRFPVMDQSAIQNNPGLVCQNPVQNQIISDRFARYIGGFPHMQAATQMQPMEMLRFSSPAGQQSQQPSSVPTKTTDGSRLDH
Nature of the series: EMSA. On the technique in general: Mobility shift assays separate free from complexed probe on a gel.

B1: NAC019pro-G1 (dsDNA)
DNA 1: ATCACGACGATCTAACTGACACACGTGTCAGAATTCAAAAGTGTTTATAGATAAACACAA
DNA 2: TTGTGTTTATCTATAAACACTTTTGAATTCTGACACGTGTGTCAGTTAGATCGTCGTGAT
Consider B1, for which the binding result is “binds”.

B2: NAC019pro-G2 (dsDNA)
DNA 1: CATTTCAGAAAACCCGTCAACAAAAAACACGTGAAATAAAATATCTCTTCCTTTACCAGT
DNA 2: ACTGGTAAAGGAAGAGATATTTTATTTCACGTGTTTTTTGTTGACGGGTTTTCTGAAATG
Take B2: the binding result is “no binding”.

B3: NAC019pro-G34 (dsDNA)
DNA 1: TTGCGCCTAACTTCTACGATAGACACGTGGACACGTGTCGTCATGATGTAGTTTTGTCCG
DNA 2: CGGACAAAACTACATCATGACGACACGTGTCCACGTGTCTATCGTAGAAGTTAGGCGCAA
As for B3, the binding result is recorded as “binds”.

B4: IAA29pro-p (dsDNA)
DNA 1: GATGTTGGATGTCTAAATTCGTTGAATCATGTGTCTCTTGACGAAATATGCATCTTCTTA
DNA 2: TAAGAAGATGCATATTTCGTCAAGAGACACATGATTCAACGAATTTAGACATCCAACATC
On to B4, for which the binding result is on record as “no binding”.

B5: IAA29pro-G (dsDNA)
DNA 1: GAGTAGTCACGCACGCACGACTCCGTTCACGTGACATTCACGTTGATATTTCCCCCTCTA
DNA 2: TAGAGGGGGAAATATCAACGTGAATGTCACGTGAACGGAGTCGTGCGTGCGTGACTACTC
On to B5, for which the binding result is “binds”.
